Legend:
[1] = biological target: T1, CD73 on Calu6 cells (Homo sapiens, UniProt P21589); test: Dual cell line HTRF cAMP assay (Calu-6 and HEK293/A2AR cells); format: cell-based
T1 construct: Calu6 (CD73 endogenous expressors; human pulmonary adenocarcinoma cell line); endogenous in cells; host or cells: Calu6, NCI-H292, SK-MEL-24, SNU-C1, NCI-H1437, H2228, HCC15, H2030 and further human tumour lines
T1 sequence (P21589 27-549): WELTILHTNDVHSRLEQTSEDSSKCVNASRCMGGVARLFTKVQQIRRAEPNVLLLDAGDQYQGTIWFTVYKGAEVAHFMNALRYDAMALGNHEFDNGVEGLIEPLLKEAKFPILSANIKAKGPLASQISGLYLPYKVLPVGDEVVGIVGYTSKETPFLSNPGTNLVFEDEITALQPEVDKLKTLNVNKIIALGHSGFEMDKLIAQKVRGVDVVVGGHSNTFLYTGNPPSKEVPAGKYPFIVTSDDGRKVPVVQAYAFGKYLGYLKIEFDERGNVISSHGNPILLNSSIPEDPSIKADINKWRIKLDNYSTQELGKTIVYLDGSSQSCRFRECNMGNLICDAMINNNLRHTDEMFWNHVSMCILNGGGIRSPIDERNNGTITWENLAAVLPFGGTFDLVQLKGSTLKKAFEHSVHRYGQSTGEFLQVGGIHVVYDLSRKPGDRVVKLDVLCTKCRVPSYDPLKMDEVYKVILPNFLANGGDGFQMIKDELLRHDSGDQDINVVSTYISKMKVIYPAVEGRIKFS
Experimental: Inhibition of CD73 Enzymatic Activity in a Dual Cell Line cAMP Assay Homogenous Time Resolved Fluorescence (HTRF) cAMP Assay
CD73 antibodies were serial diluted with PBS buffer containing 0.2% BSA, and plated 5 μl/well in 384 well white bottom proxiplate (PerkinElmer, Waltham, Mass.). Calu-6 cells were harvested and resuspend in PBS containing 0.2% BSA, then 5 μl of cells (300 cells/well) were added to the plate. The cells were incubated with antibodies for 10 minutes at 37° C. […] The cells were further incubated with AMP for 30 minutes at 37° C. During this time, HEK293/A2AR cells were harvested and diluted to 0.4 million/ml in PBS containing 0.2% BSA. […] HRTF assays were performed using the homogenous time-resolved fluorescence (HTRF) HiRange cAMP detection kit (Cisbio, Bedford, Mass.) by adding 10 μl/well cAMP-conjugated d2 and 10 μl/well europium cryptate conjugated anti-cAMP antibody in lysis buffer according to the manufacturer's instructions. Plates were incubated at room temperature for 60 minutes and Fluorescence Resonance Energy Transfer (FRET) signals (665 and 615 nM) were read using an EnVision plate reader (PerkinElmer, Waltham, Mass.). The FRET signal was calculated as the ratio of signal from the 665 nm (acceptor) and 615 nm (donor) channels and multiplied by 10.000. IC50 and Ymax were measured. […]

[2] = biological target: cyno FcγRs; test: SPR binding to cyno FcγRs; parameters: species or system cynomolgus; conditions: read-out: binding affinity to cyno FcγRs
[3] = biological target: human FcγRs; test: SPR binding profile to human FcγRs (panel); conditions: read-out: binding affinity to all other FcγRs
Experimental: Binding of the constructs to human FcγRs was measured via SPR. hCD64 and hCD32a-H131 binding data for IgG1.1 and IgG2 molecules were consistent with expected values for the different Fcs. IgG1.1f is the most inert Fc.
(§1) The binding of antibodies to Fc gamma receptors (FcγRs or FcgRs) was studied using biosensor technologies including Biacore surface plasmon resonance (SPR) and Fortebio Biolayer Interferometry (BLI). SPR studies were performed on a Biacore T100 instrument (GE Healthcare) at 25° C. The Fab fragment from a murine anti-6×His antibody was immobilized on a CM5 sensor chip using EDC/NHS to a density of ˜3000 RU. Various his-tagged FcgRs (7 ug/ml) were captured via the C-terminal his-tag using a contact time of 30 s at 10 ul/min, and the binding of 1.0 μM antibody was evaluated in a running buffer of 10 mM NaPO4, 130 mM NaCl, 0.05% p20 (PBS-T) pH 7.1. FcgRs used for these experiments included CD64 (FcgRI), CD32a-H131 (FcgRIIa-H131), CD32a-R131 (FcgRIIa-R131), CD32b (FcgRIIb), CD16a-V158 (FcgRIIIa-V158), CD16b-NA1 (FcgRIIIb-NA1), and CD16B-NA2 (FcgRIIIb-NA2). BLI experiments were performed on a Fortebio Octet RED instrument (Pall, Fortebio) at 25° C. in 10 mM NaPO4, 130 mM NaCl, 0.05% p20 (PBS-T) pH 7.1. Antibodies were captured out of undiluted expression supernatants on protein A coated sensors, followed by the binding of 1 μM hCD32a-H131, hCD32a-R131, hCD32b, hCD16a-V158, or 0.1 μM hCD64 analytes.
This engineering strategy was further explored by producing other antibodies formatted with IgG2.3G1-AY, IgG2.3G1-AY-S267E (IgG2.3G1-AY-V27), as well as IgG2-B-form variants (IgG2.5G1-AY and IgG2.5G1-AY-V27), and other hybrid antibodies containing different combinations of IgG1 and IgG2 constant domains, and testing the binding of these antibodies to anti-his Fab captured his-tagged FcgRs using Biacore SPR technology.

[4] = biological target: T2, CD73 (Homo sapiens, UniProt P21589); test: CD73 internalization at 1, 4 or 21 hours by CD73.4 with heavy chain constant region variants (FIG. 31); format: cell-based; parameters: endogenous in cells; conditions: CD73.4 variable regions with the named constant region
T2 sequence (P21589 27-549): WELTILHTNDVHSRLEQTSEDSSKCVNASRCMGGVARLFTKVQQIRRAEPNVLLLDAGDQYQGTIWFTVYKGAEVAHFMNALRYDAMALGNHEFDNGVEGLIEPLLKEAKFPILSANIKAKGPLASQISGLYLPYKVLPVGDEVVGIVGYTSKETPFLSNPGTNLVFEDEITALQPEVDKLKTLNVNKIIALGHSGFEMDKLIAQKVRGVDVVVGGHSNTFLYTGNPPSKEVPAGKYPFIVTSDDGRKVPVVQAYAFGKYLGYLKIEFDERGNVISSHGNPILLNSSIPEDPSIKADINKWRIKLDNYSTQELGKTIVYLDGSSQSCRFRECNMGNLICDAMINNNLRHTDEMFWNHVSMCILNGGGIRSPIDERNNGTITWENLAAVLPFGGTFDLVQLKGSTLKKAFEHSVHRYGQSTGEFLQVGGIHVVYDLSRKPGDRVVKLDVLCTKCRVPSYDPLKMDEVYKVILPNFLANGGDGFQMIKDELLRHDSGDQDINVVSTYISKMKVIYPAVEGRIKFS
Experimental: The bars for each antibody are shown in the order of 21 hours (on the left), 4 hours (middle) and 1 hour (right).
Anti-CD73 antibodies (CD73.4) with the heavy chain constant regions shown in Table 31 were prepared and tested as described above in antibody mediated CD73 internalization assays.

[5] = tested on: hCD32a-H131, hCD32a-R131, hCD32b, hCD16a-V158, hCD64; test: Fortebio Octet BLI binding of protein A-captured antibodies to FcgR analytes; parameters: species or system human; conditions: expression supernatants
Experimental: as §1
The next set of constructs was used to engineer effector function into the otherwise effector function negative IgG2 isotype. […]

[6] = SEC-MALS oligomeric state of CD73 mAbs; format: physicochemical
Experimental: The oligomeric state of CD73 mAbs were examined by size-exclusion chromatography coupled to an in-line multi-angle light scattering detector (SEC-MALS). Isocratic separations were performed on a Shodex PROTEIN KW-803 column connected to an Prominence Shimadzu UFLC in buffer containing 200 mM K2HPO4, 150 mM NaCl, pH 6.8, containing 0.02% Na azide (0.1 μm filtered) running at 0.5 mL/min. Samples were injected onto the column using a SIL-20AC Prominence Shimadzu autosampler, and data were obtained from three online detectors connected in series: a Prominence SPD-20AD diode array UV/vis spectrophotometer followed by a Wyatt miniDAWN™ TREOS Multi-Angle Light Scattering Detector then a Wyatt Optilab T-rEX Refractive Index Detector. Data (as shown in Table 15 below) were collected and analyzed using Astra (Wyatt) and Labsolutions (Shimadzu) software.

[7] = biological target: T3, CD73 on NCI-H292 cells (Homo sapiens, UniProt P21589); test: Flow cytometry based cross-blocking on NCI-H292 cells; format: binding; conditions: FITC-labeled 11F11, NCI-H292 cells
T3 construct: endogenous in cells; host or cells: NCI-H292
T3 sequence (P21589 27-549): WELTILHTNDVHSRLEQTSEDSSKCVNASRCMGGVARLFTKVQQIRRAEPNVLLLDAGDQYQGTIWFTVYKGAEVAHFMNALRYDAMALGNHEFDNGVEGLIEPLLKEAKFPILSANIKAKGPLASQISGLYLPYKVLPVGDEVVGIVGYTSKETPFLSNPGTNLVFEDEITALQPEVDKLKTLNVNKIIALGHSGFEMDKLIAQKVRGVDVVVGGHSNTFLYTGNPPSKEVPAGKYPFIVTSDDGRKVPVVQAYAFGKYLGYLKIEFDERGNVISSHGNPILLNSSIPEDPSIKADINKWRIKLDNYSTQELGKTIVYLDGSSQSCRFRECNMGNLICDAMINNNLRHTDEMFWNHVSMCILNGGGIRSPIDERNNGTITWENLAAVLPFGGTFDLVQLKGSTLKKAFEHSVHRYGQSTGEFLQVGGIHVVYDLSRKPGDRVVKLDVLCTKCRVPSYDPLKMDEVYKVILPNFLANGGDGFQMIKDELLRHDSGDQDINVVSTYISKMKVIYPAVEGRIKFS
Experimental: The antibodies were also subjected to flow cytometry based cross-blocking. The experiment was conducted as follows using one set of labeled fluorescently labeled antibody and a second set of unlabeled antibody: 100000 NCI-H292 cells were seeded per well. The plate was spun down and the cells were resuspended in 100 uL 2% FBS in PBS per well. The cells were blocked on ice for 20 min. Unlabeled antibody, as indicated, in 2% FBS in PBS was added to each well. […] 6 wells of cells were incubated without antibody, and were resuspended in 100 uL 2% FBS in PBS only (for controls). The cells were then incubated on ice for 30 min. The cells were washed twice with 2% FBS in PBS and the samples were resuspended in 140 uL 2% FBS in PBS, and analyzed on a FacsCalibur flow cytometer (Becton Dickinson).

Nc1ncnc2c1ncn2[C@@H]1O[C@H](COP(=O)(O)CP(=O)(O)O)[C@@H](O)[C@H]1O [APCP]
IC50 ([1]; cAMP assay): 1.29 nM
Ymax ([1]; percentage of inhibition relative to 100 nM 11F11 set to 100%): 97

IgG2-C219S-G1.1f: effectorless IgG1/IgG2 hybrid constant region: CH1 and hinge from IgG2 (C219S), CH2 and CH3 of IgG1 (A330S/P331S); SEQ ID NO:169
Kd [2]: > 5000 nM
Kd [3]: < 5000 nM

B1: IgG2.3/4: CD73.4 with IgG2 constant region with C219S/C220S (protein)
chain: ASTKGPSVFPLAPCSRSTSESTAALGCLVKDYFPEPVTVSWNSGALTSGVHTFPAVLQSSGLYSLSSVVTVPSSNFGTQTYTCNVDHKPSNTKVDKTVERKSSVECPPCPAPPVAGPSVFLFPPKPKDTLMISRTPEVTCVVVDVSHEDPEVQFNWYVDGVEVHNAKTKPREEQFNSTFRVVSVLTVVHQDWLNGKEYKCKVSNKGLPAPIEKTISKTKGQPREPQVYTLPPSREEMTKNQVSLTCLVKGFYPSDIAVEWESNGQPENNYKTTPPMLDSDGSFFLYSKLTVDKSRWQQGNVFSCSVMHEALHNHYTQKSLSLSPGK
modifications: Synthetic: IgG2.3/4
notes: CD73.4 with IgG2 constant region with C219S/C220S
antibody mediated CD73 internalization (in words) [4]: much reduced internalization compared to IgG2.3 or IgG2.4 alone

B2: IgG2.3: antibody with IgG2 constant region with C219S (protein)
constant: ASTKGPSVFPLAPCSRSTSESTAALGCLVKDYFPEPVTVSWNSGALTSGVHTFPAVLQSSGLYSLSSVVTVPSSNFGTQTYTCNVDHKPSNTKVDKTVERKSCVECPPCPAPPVAGPSVFLFPPKPKDTLMISRTPEVTCVVVDVSHEDPEVQFNWYVDGVEVHNAKTKPREEQFNSTFRVVSVLTVVHQDWLNGKEYKCKVSNKGLPAPIEKTISKTKGQPREPQVYTLPPSREEMTKNQVSLTCLVKGFYPSDIAVEWESNGQPENNYKTTPPMLDSDGSFFLYSKLTVDKSRWQQGNVFSCSVMHEALHNHYTQKSLSLSPGK
modifications: left off: another chain or arm of the molecule
notes: antibody with IgG2 constant region with C219S
FcgR binding profile by BLI (in words) [5]: appreciable binding to only CD32a-H131

B3: 7A11: human anti-CD73 monoclonal antibody, IgG1za; VH SEQ ID NO: 88, VL SEQ ID NO: 92 (antibody, V domains shown)
VH: EVQLVESGGGLVQTGRSLRLSCAASGFTFDDYAMHWVRQAPGKGLEWVSDISWNSDIIGYADSVKGRFTISRDNAKNSLYLQMNSLRAEDTALYYCAKDIYGSGSSFFDYWGQGILVTVSS
VL: DIQMTQSPSSLSASVGDRVTITCRASQYISSWLAWYQQKPEKAPKSLIYAASSLQSGVPSRFSGSGSGTDFTLTISSLQPEDFATYYCQQYHSYPPTFGQGTRLEIK
modifications: Synthetic: 7A11 VH; Synthetic: 7A11 VK1
SEC % HMW [6]: 0.5%
SEC % LMW [6]: 0.5%
SEC % Monomer [6]: 98.5%
competition with 11F11 (cross-blocking) [7]: competes with 11F11

Source: US10100129B2, “Antibodies against CD73 and uses thereof” (BRISTOL-MYERS SQUIBB COMPANY, priority 2014, dated 2018)
